Results published in patent US20250289887A1 (Memorial Sloan Kettering, published 2025).

Target: T1, FKBP12 drug-induced heterodimerization domain (DmrA) (Homo sapiens (Human), UniProt P62942 2-108)
T1 construct: also called FKBP12-DmRA; FKBP12 heterodimerizing domain
Test: drug-induced heterodimerization inside mouse T cells, with 1 µM AP21967; read out as hCD34 surface expression by flow cytometry (FIG. 9B)
Excerpt: In the instant example, mouse T cells were transduced with the following 2 vectors (FIG. 9A): (Vector 1) encodes a Thy1.1 reporter and a drug-activated intein-tagged antigen-binding construct comprised of a CD19-targeting scFv fused to a hCD34 affinity-tag, a CD8 hinge and transmembrane domain, an AES CL low affinity intein N terminus, an FKBP12 drug-induced heterodimerization domain (DmrA), and an E319K ER retention motif, while (Vector 2) encodes an EGFP reporter and a cytoplasmic signaling shuttle comprised of a FRB drug-induced heterodimerization domain (DmrC), an AES CL low affinity intein C terminus, a CD28 costimulatory domain, and a CD3-zeta chain. In the absence of the dimerizing drug, hCD34 expression at the cell surface is low due to presence of the ER retention motif encoded by Vector1 (FIG. 9B). […] Thus, this system enables drug-regulated splicing to regulate post-translational CAR assembly. Double-transduced cells were cultured with 1 μM A/C heterodimerizing drug and subsequently enriched by MACS sorting using anti-hCD34 magnetic beads to yield highly pure hCD34+CD19-CAR T cells (FIG. 9B). […] This methodology improves upon previous FKBP/FRB-based drug-regulated CAR systems by eliminating the FKBP/FRB proteins following trans-splicing and generating a mature CAR molecule. […]

T1 sequence (P62942 2-108 limits assumed, one chain of several): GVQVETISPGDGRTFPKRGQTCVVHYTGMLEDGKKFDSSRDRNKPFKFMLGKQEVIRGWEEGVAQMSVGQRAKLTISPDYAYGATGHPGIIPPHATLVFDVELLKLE

B1: FRB* heterodimerization domain (DmrC) (other)
chain: MILWHEMWHEGLEEASRLYFGERNVKGMFEVLEPLHAMMERGPQTLKETSFNQAYGRDLMEAQEWCRKYMKSGNVKDLLQAWDLYYHVFRRISK
notes: also called FRB drug-induced heterodimerization domain (DmrC); FRB (DmrB)
B1: binds.
